Source: patent publication US20230235032A1 (published 2023)

Molecular target: T1, human α-CGRP (1-37, WT) (human, not fully specified; C-terminal amide; N-terminally biotinylated when captured on the chip; 125I-labelled in the radioligand assay)
T1 construct: also called full length human α-CGRP
T1 peptide: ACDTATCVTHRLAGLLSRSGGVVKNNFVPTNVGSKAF
Assay: Biacore competition: 50 nM G1 Fab + 10 uM peptide, over human α-CGRP on SA chip
Protocol: All Biacore assays were conducted in HBS-EP running buffer (10 mM HEPES pH 7.4, 150 mM NaCl, 3 mM EDTA, 0.005% v/v polysorbate P20). CGRP surfaces were prepared by diluting the N-biotinylated CGRP to a concentration of less than 0.001 mg/mL into HBS-EP buffer and injecting it across the SA sensor chip using variable contact times. […] Samples were typically injected for 1 minute at 100 μL/min and dissociation times of at least 10 minutes were allowed. […] An entire titration series (typically generated in duplicate) was fit globally to a 1:1 Langmuir binding model using the BIAevaluation program. This returned a unique pair of association and dissociation kinetic rate constants (respectively, kₒₙ and koff) for each binding interaction, whose ratio gave the equilibrium dissociation constant (KD=koff/kₒₙ).

percentage of binding blocked by competing peptide: 100%
B1: anti-CGRP antibody G1, Fab fragment (Fab, V domains shown)
VH: EVQLVESGGGLVQPGGSLRLSCAASGFTFSNYWISWVRQAPGKGLEWVAEIRSESDASATHYAEAVKGRFTISRDNAKNSLYLQMNSLRAEDTAVYYCLAYFDYGLAIQNYWGQGTLVTVSS
VL: EIVLTQSPATLSLSPGERATLSCKASKRVTTYVSWYQQKPGQAPRLLIYGASNRYLGIPARFSGSGSGTDFTLTISSLEPEDFAVYYCSQSYNYPYTFGQGTKLEIK
notes: Fab expressed in E. coli; the vector adds the CH1 constant domain of human IgG2 (Ig gamma-2 chain C region, P01859) and the human kappa light chain constant domain (CAA09181); purified on Ni-NTA, tag not described
